Patent US20220033484A1 (FAPON BIOTECH, published 2022)

B1: WT 1-51 (antibody, V domains shown)
VH: EVQLQQSGPELVKPGASVKMSCKASGYSFTIYVVHWVKQKPGQGLEWIGYIQPYIDGTRYNEKFKGKATLTVDKSSSTAFMELSSLTSEDSAVYYCARTGYGQYGLAWLAYWGQGTLVTVSA
VL: QAVVIQESALTTSPGETVTLTCRSSSGAATTSQYANWVQEKPDHLFTGLIGGSNNRAPGVPARFSGSLIGDKAALTITGAQTEDEAIYFCAIVYSNHWVFGGGTKLTVLG
notes: Heavy chain built as m63
B2: Mutation 1-6 (antibody, V domains shown)
VH: EVQLQQSGPELVKPGASVKMSCKASGYTFTIYVVHWVKQKPGQGLEWIGYIQPYLDGTKYNEKFKGKATLTVDKSSSTAFMELSSLTSEDSAVYYCARSGYGQYGLAWLAYWGQGTLVTVSA
VL: QAVVIQESALTTSPGETVTLTCRSSTGAVTTSQYANWVQEKPDHLFTGLIGGSNNRAPGVPARFSGSLIGDKAALTITGAQTEDEAIYFCALVYSNNWVFGGGTKLTVLG
notes: Built as m8
B3: Mutation 1-9 (antibody, V domains shown)
VH: EVQLQQSGPELVKPGASVKMSCKASGYTFTLYVVHWVKQKPGQGLEWIGYIQPYLDGTKYNEKFKGKATLTVDKSSSTAFMELSSLTSEDSAVYYCARSGYGQYGLAWLAYWGQGTLVTVSA
VL: QAVVIQESALTTSPGETVTLTCRSSTGAATTSNYANWVQEKPDHLFTGLIGGSQNRAPGVPARFSGSLIGDKAALTITGAQTEDEAIYFCALVYSNHWVFGGGTKLTVLG
notes: Built as m8
B4: Mutation 1-14 (antibody, V domains shown)
VH: EVQLQQSGPELVKPGASVKMSCKASGYTFTIYVIHWVKQKPGQGLEWIGYINPYIDGTKYNEKFKGKATLTVDKSSSTAFMELSSLTSEDSAVYYCARSGYGGYGLAWLAYWGQGTLVTVSA
VL: QAVVIQESALTTSPGETVTLTCRSSTGAVTTSQYANWVQEKPDHLFTGLIGGSNNRAPGVPARFSGSLIGDKAALTITGAQTEDEAIYFCALVYSNHWVFGGGTKLTVLG
notes: Built as m8
B5: Mutation 1-10 (antibody, V domains shown)
VH: EVQLQQSGPELVKPGASVKMSCKASGYTFTLYVLHWVKQKPGQGLEWIGYIQPYLDGTKYNEKFKGKATLTVDKSSSTAFMELSSLTSEDSAVYYCARSGYGNYGLAWLAYWGQGTLVTVSA
VL: QAVVIQESALTTSPGETVTLTCRSSTGAVTTSQYANWVQEKPDHLFTGLIGGSNNRAPGVPARFSGSLIGDKAALTITGAQTEDEAIYFCALVYSNQWVFGGGTKLTVLG
notes: Built as m8
B6: Mutation 1-1 (antibody, V domains shown)
VH: EVQLQQSGPELVKPGASVKMSCKASGYTFTIYVLHWVKQKPGQGLEWIGYIQPYIDGTKYNEKFKGKATLTVDKSSSTAFMELSSLTSEDSAVYYCARSGYGNYGLAWLAYWGQGTLVTVSA
VL: QAVVIQESALTTSPGETVTLTCRSSTGAATTSNYANWVQEKPDHLFTGLIGGSQNRAPGVPARFSGSLIGDKAALTITGAQTEDEAIYFCALVYSNQWVFGGGTKLTVLG
notes: built as m3
B7: Mutation 1-16 (antibody, V domains shown)
VH: EVQLQQSGPELVKPGASVKMSCKASGYTFTLYVLHWVKQKPGQGLEWIGYINPYLDGTKYNEKFKGKATLTVDKSSSTAFMELSSLTSEDSAVYYCARSGYGNYGLAWLAYWGQGTLVTVSA
VL: QAVVIQESALTTSPGETVTLTCRSSTGAATTSQYANWVQEKPDHLFTGLIGGSNNRAPGVPARFSGSLIGDKAALTITGAQTEDEAIYFCALVYSNHWVFGGGTKLTVLG
notes: Built as m8
B8: Mutation 1-2 (antibody, V domains shown)
VH: EVQLQQSGPELVKPGASVKMSCKASGYTFTIYVIHWVKQKPGQGLEWIGYIQPYIDGTKYNEKFKGKATLTVDKSSSTAFMELSSLTSEDSAVYYCARSGYGGYGLAWLAYWGQGTLVTVSA
VL: QAVVIQESALTTSPGETVTLTCRSSTGAVTTSQYANWVQEKPDHLFTGLIGGSNNRAPGVPARFSGSLIGDKAALTITGAQTEDEAIYFCALVYSNNWVFGGGTKLTVLG
notes: Built as m8
B9: Mutation 1-22 (antibody, V domains shown)
VH: EVQLQQSGPELVKPGASVKMSCKASGYTFTLYVLHWVKQKPGQGLEWIGYIYPYIDGTKYNEKFKGKATLTVDKSSSTAFMELSSLTSEDSAVYYCARSGYGNYGLAWLAYWGQGTLVTVSA
VL: QAVVIQESALTTSPGETVTLTCRSSTGAVTTSQYANWVQEKPDHLFTGLIGGSNNRAPGVPARFSGSLIGDKAALTITGAQTEDEAIYFCALVYSNNWVFGGGTKLTVLG
notes: Built as m8
B10: Mutation 1-20 (antibody, V domains shown)
VH: EVQLQQSGPELVKPGASVKMSCKASGYTFTIYVIHWVKQKPGQGLEWIGYIYPYIDGTKYNEKFKGKATLTVDKSSSTAFMELSSLTSEDSAVYYCARSGYGGYGLAWLAYWGQGTLVTVSA
VL: QAVVIQESALTTSPGETVTLTCRSSTGAATTSQYANWVQEKPDHLFTGLIGGSNNRAPGVPARFSGSLIGDKAALTITGAQTEDEAIYFCALVYSNNWVFGGGTKLTVLG
notes: Built as m8
B11: Mutation 1-8 (antibody, V domains shown)
VH: EVQLQQSGPELVKPGASVKMSCKASGYTFTIYVIHWVKQKPGQGLEWIGYIQPYLDGTKYNEKFKGKATLTVDKSSSTAFMELSSLTSEDSAVYYCARSGYGGYGLAWLAYWGQGTLVTVSA
VL: QAVVIQESALTTSPGETVTLTCRSSTGAATTSQYANWVQEKPDHLFTGLIGGSNNRAPGVPARFSGSLIGDKAALTITGAQTEDEAIYFCALVYSNQWVFGGGTKLTVLG
notes: Built as m8
B12: Mutation 1-7 (antibody, V domains shown)
VH: EVQLQQSGPELVKPGASVKMSCKASGYTFTIYVLHWVKQKPGQGLEWIGYIQPYLDGTKYNEKFKGKATLTVDKSSSTAFMELSSLTSEDSAVYYCARSGYGNYGLAWLAYWGQGTLVTVSA
VL: QAVVIQESALTTSPGETVTLTCRSSTGAVTTSNYANWVQEKPDHLFTGLIGGSQNRAPGVPARFSGSLIGDKAALTITGAQTEDEAIYFCALVYSNHWVFGGGTKLTVLG
notes: Built as m8
B13: Mutation 1-15 (antibody, V domains shown)
VH: EVQLQQSGPELVKPGASVKMSCKASGYTFTLYVVHWVKQKPGQGLEWIGYINPYIDGTKYNEKFKGKATLTVDKSSSTAFMELSSLTSEDSAVYYCARSGYGQYGLAWLAYWGQGTLVTVSA
VL: QAVVIQESALTTSPGETVTLTCRSSTGAVTTSNYANWVQEKPDHLFTGLIGGSQNRAPGVPARFSGSLIGDKAALTITGAQTEDEAIYFCALVYSNNWVFGGGTKLTVLG
notes: Built as m8
B14: Mutation 1-3 (antibody, V domains shown)
VH: EVQLQQSGPELVKPGASVKMSCKASGYTFTLYVVHWVKQKPGQGLEWIGYIQPYIDGTKYNEKFKGKATLTVDKSSSTAFMELSSLTSEDSAVYYCARSGYGQYGLAWLAYWGQGTLVTVSA
VL: QAVVIQESALTTSPGETVTLTCRSSTGAVTTSNYANWVQEKPDHLFTGLIGGSQNRAPGVPARFSGSLIGDKAALTITGAQTEDEAIYFCALVYSNQWVFGGGTKLTVLG
notes: Built as m8
B15: Mutation 1-4 (antibody, V domains shown)
VH: EVQLQQSGPELVKPGASVKMSCKASGYTFTLYVLHWVKQKPGQGLEWIGYIQPYIDGTKYNEKFKGKATLTVDKSSSTAFMELSSLTSEDSAVYYCARSGYGNYGLAWLAYWGQGTLVTVSA
VL: QAVVIQESALTTSPGETVTLTCRSSTGAATTSQYANWVQEKPDHLFTGLIGGSNNRAPGVPARFSGSLIGDKAALTITGAQTEDEAIYFCALVYSNNWVFGGGTKLTVLG
notes: Built as m8
B16: Mutation 1-13 (antibody, V domains shown)
VH: EVQLQQSGPELVKPGASVKMSCKASGYTFTIYVLHWVKQKPGQGLEWIGYINPYIDGTKYNEKFKGKATLTVDKSSSTAFMELSSLTSEDSAVYYCARSGYGNYGLAWLAYWGQGTLVTVSA
VL: QAVVIQESALTTSPGETVTLTCRSSTGAATTSNYANWVQEKPDHLFTGLIGGSQNRAPGVPARFSGSLIGDKAALTITGAQTEDEAIYFCALVYSNNWVFGGGTKLTVLG
notes: Built as m8
B17: Mutation 1-18 (antibody, V domains shown)
VH: EVQLQQSGPELVKPGASVKMSCKASGYTFTIYVVHWVKQKPGQGLEWIGYINPYLDGTKYNEKFKGKATLTVDKSSSTAFMELSSLTSEDSAVYYCARSGYGQYGLAWLAYWGQGTLVTVSA
VL: QAVVIQESALTTSPGETVTLTCRSSTGAVTTSQYANWVQEKPDHLFTGLIGGSNNRAPGVPARFSGSLIGDKAALTITGAQTEDEAIYFCALVYSNHWVFGGGTKLTVLG
notes: Built as m8
B18: Mutation 1-5 (antibody, V domains shown)
VH: EVQLQQSGPELVKPGASVKMSCKASGYTFTLYVIHWVKQKPGQGLEWIGYIQPYIDGTKYNEKFKGKATLTVDKSSSTAFMELSSLTSEDSAVYYCARSGYGGYGLAWLAYWGQGTLVTVSA
VL: QAVVIQESALTTSPGETVTLTCRSSTGAATTSNYANWVQEKPDHLFTGLIGGSQNRAPGVPARFSGSLIGDKAALTITGAQTEDEAIYFCALVYSNHWVFGGGTKLTVLG
notes: Built as m8
B19: Mutation 1-21 (antibody, V domains shown)
VH: EVQLQQSGPELVKPGASVKMSCKASGYTFTLYVVHWVKQKPGQGLEWIGYIYPYIDGTKYNEKFKGKATLTVDKSSSTAFMELSSLTSEDSAVYYCARSGYGQYGLAWLAYWGQGTLVTVSA
VL: QAVVIQESALTTSPGETVTLTCRSSTGAATTSNYANWVQEKPDHLFTGLIGGSQNRAPGVPARFSGSLIGDKAALTITGAQTEDEAIYFCALVYSNQWVFGGGTKLTVLG
notes: Built as m8

Each binder was assayed against T1, cTnI quality control product recombinant protein (human, UniProt P19429 2-210, limits assumed) (assay: AMC sensor, antibody immobilised, cTnI in solution).
T1 construct: treated as the same molecule; also called cTnI antigen; cardiac troponin I
T1 sequence (P19429 2-210 limits assumed): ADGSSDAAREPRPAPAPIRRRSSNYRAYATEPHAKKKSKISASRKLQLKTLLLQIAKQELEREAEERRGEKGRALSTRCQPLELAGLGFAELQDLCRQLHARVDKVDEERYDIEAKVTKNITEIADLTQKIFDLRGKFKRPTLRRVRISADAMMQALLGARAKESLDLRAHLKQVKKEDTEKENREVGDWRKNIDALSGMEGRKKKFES
Description: Operating process: it is equilibrated in Buffer 1 (PBST) for 60 s, the antibody is immobilized in an antibody solution for 300 s, incubated in Buffer 2 (PBST) for 180 s, bound in antigen solution for 420 s, dissociated in the Buffer 2 for 1200 s, 10 mM of GLY solution with pH 1.69 and Buffer 3 are used for sensor regeneration, and data is output. KD represents an equilibrium dissociation constant, namely the affinity; Kon represents a binding rate; and Kd is represents a dissociation rate.
B1 gave a Kd of 35.4 nM, a koff of 0.000527 s⁻¹ and a kon of 14900 M⁻¹ s⁻¹.
B2 showed a Kd of 0.697 nM, a koff of 5.34e-05 s⁻¹ and a kon of 76600 M⁻¹ s⁻¹.
Work on B3 yielded a Kd of 5.43 nM, a koff of 0.00024 s⁻¹ and a kon of 44200 M⁻¹ s⁻¹.
Binder B4 has a Kd of 0.866 nM, a koff of 2.21e-05 s⁻¹ and a kon of 25500 M⁻¹ s⁻¹.
With B5 the Kd was 0.731 nM, the koff was 4.12e-05 s⁻¹ and the kon was 56300 M⁻¹ s⁻¹.
B6 gave a Kd of 8.27 nM, a koff of 0.000712 s⁻¹ and a kon of 86100 M⁻¹ s⁻¹.
With B7 the Kd was 6.48 nM, the koff was 0.000222 s⁻¹ and the kon was 34300 M⁻¹ s⁻¹.
B8 showed a Kd of 7.64 nM, a koff of 0.00061 s⁻¹ and a kon of 79900 M⁻¹ s⁻¹.
B9 showed a Kd of 0.106 nM, a koff of 2.86e-06 s⁻¹ and a kon of 27000 M⁻¹ s⁻¹.
B10 showed a Kd of 7.74 nM, a koff of 0.000542 s⁻¹ and a kon of 70000 M⁻¹ s⁻¹.
With B11 the Kd was 9.31 nM, the koff was 0.000244 s⁻¹ and the kon was 26200 M⁻¹ s⁻¹.
Binder B12 has a Kd of 2.77 nM, a koff of 0.000176 s⁻¹ and a kon of 63600 M⁻¹ s⁻¹.
B13 was tested, and the Kd was 0.759 nM, the koff was 4.7e-05 s⁻¹ and the kon was 61900 M⁻¹ s⁻¹.
B14 was tested, and the Kd was 0.399 nM, the koff was 9.54e-06 s⁻¹ and the kon was 23900 M⁻¹ s⁻¹.
With B15 the Kd was 5.03 nM, the koff was 0.000232 s⁻¹ and the kon was 46200 M⁻¹ s⁻¹.
B16 was tested, and the Kd was 0.139 nM, the koff was 3.79e-06 s⁻¹ and the kon was 27300 M⁻¹ s⁻¹.
B17 gave a Kd of 9.31 nM, a koff of 0.000586 s⁻¹ and a kon of 63000 M⁻¹ s⁻¹.
For B18, the Kd was 1.2 nM, the koff was 4.4e-05 s⁻¹ and the kon was 36800 M⁻¹ s⁻¹.
With B19 the Kd was 1.47 nM, the koff was 5.71e-05 s⁻¹ and the kon was 38800 M⁻¹ s⁻¹.
